We go through one substance from article PMC7577971.

The assay deals with CR3022/S1 complex (one monomer of the spike ectodomain with one bound CR3022 Fab) (SARS-CoV-2 | human) (UniProt P0DTC2). Nature of the assay: cryo-EM structure.

As for “CR3022/S1 complex (one monomer of the spike ectodomain with one bound CR3022 Fab) (from UniProt P0DTC2 14-1208)”, the stoichiometry N (commonly a count of units in the complex or per binding partner) was found to be 2.
